41 sequences from the nanobody polyreactivity screen of Harvey et al. (2022) can be followed below.

The data set is described as follows: yeast display, Sf9 membrane polyspecificity reagent, FACS + sequencing; frameworks hold sequencing errors. An outline of the steps:
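After 36–48 hours of galactose induction, yeast (Saccharomyces cerevisiae BJ5465) displaying a synthetic nanobody library were stained at 4 °C for 1 hour with 10% biotinylated, detergent-solubilized Sf9 membrane reagent. Streptavidin microbeads enriched the stained cells before FACS sorting into low and high (top ~1%) gates on anti-HA and streptavidin fluorescence. Each clone's polyreactivity label reflects its gate of origin.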
Take “QVQLVESGGGLVQAGGSLRLSCAASGIIFTVYAMGWDRQAPGKERELVAAISFSTGRTYYADSVKGRFTISRDNAKNTVYLQMNSLKPEDTAVYYCAASAGHTFSKPFDRGRYGYWGQGTQVTVSS”: the “polyreactivity (PSR sort gate)” value is given as “high polyreactivity”. The value for “QVQLVESGGGLVQAGGSLRLSCAASGIIFTVYAMGWYRQAPGKERELVAAITWSGGSTYYADSVKGRFTISRDNAKNTVYLQMNSLKPEDTAVYYCNKVGRVWDVETDGDYDYWGQGTQVTVSS” was “low polyreactivity”; that for “QVQLVESGGGLVQAGGSLRLSCAASGIIFTVYAMGWYRQAPGKERELVASITSNGGSTYYADSVKGRFTISRDNAKNTVYLQMNSLKPEDTAVYYCAADSYYDPVDYNYWGQGTQVTVSS” was “low polyreactivity”; that for “QVQLVESGGGLVQAGGSLRLSCAASGIIFTYYAMGWDRQAPGKERELVARISSSGGRTYYADSVKGRFTISRDNAKNTVYLQMNSLKPEDTAVYYCAAAIVSYGRNDYWGQGTQVTVSS” was “high polyreactivity”.

For the sequence “QVQLVESGGGLVQAGGSLRLSCAASGIIFTYYAMGWYRQAPGKERELVAAISDSGGGTYYADSVKGRFTISRDNAKNTVYLQMNSLKPEDTAVYYCAASGAWWDDYWGQGTQVTVSS”, the “polyreactivity (PSR sort gate)” value was “high polyreactivity”.

For “QVQLVESGGGLVQAGGSLRLSCAASGIIFTYYAMGWYRQAPGKERELVAAISVSGSSTYYADSVKARFTISRDYAKNTVYLQMNRLKPEDTAVYYCAVKQGFYSRALKLYYWGQGTQVTVSS”, the “polyreactivity (PSR sort gate)” value is reported as “high polyreactivity”.

Consider “QVQLVESGGGLVQAGGSLRLSCAASGIIFTYYAMGWYRQAPGKERELVAAISYRGGSTYYADSVKGRFTISRDNAKNTVYLQMNSLKPEDTAVYYCNARYFRHYDYWGQGTQVTVSS”, for which the “polyreactivity (PSR sort gate)” value is “high polyreactivity”. As to “QVQLVESGGGLVQAGGSLRLSCAASGIIFTYYAMGWYRQAPGKERELVASISSSGTSTYYADSVKGRFTISRDNAKNTVYLQMNSLKPEDTAVYYCAADWTGSNGVDYWGQGTQVTVSS”, the “polyreactivity (PSR sort gate)” value is “low polyreactivity”. Turning to “QVQLVESGGGLVQAGGSLRLSCAASGIIFVDYVMGWYRQAPGKERELVAAITYTGGSTYYADSVKGRFTISRDNAKNTVYLQMNSLKPEDTAVYYCAARRNDRFFPAYYYWGQGTQVTVSS”, the “polyreactivity (PSR sort gate)” value is “high polyreactivity”. The value for “QVQLVESGGGLVQAGGSLRLSCAASGIIFVFNAMGWYRQAPGKERELVAVISTSGDSTYYADSVKGRFTISRDNAKNTVYLQMNSLKPEDTAVYYCAADQRVTYRRGRAYDKYYYWGQGTQVTVSS” was “low polyreactivity”. Consider “QVQLVESGGGLVQAGGSLRLSCAASGIIFVGNAMGWYRQAPGKERELVASINSGGSTYYADSVKGRFTISRDNAKNTVYLPMNSLKPEDTAVYYCAVEEARYYYDDYDYWGQGTQVTVSS”, for which the “polyreactivity (PSR sort gate)” value was “low polyreactivity”. The value for “QVQLVESGGGLVQAGGSLRLSCAASGIIFVINAMGWYRQAPGKERELVATITGSGTTNYADSVKGRFTISRDNAKNTVYLHMNSLKPEDTAVYYCARDDTEYARTGAYDYWGQGTQVTVSS” was “low polyreactivity”. The value for “QVQLVESGGGLVQAGGSLRLSCAASGIIFVLYTMGWYIQAPGKERELVATINWGGGNTYYADSVKGRFTISRDNAKNTVYFQMNSLKPEDTAVYYCAAAYTWYGYSQAYYYWGQGTQVTVSS” was “low polyreactivity”; that for “QVQLVESGGGLVQAGGSLRLSCAASGIIFVTNDMGWYRQAPGKERELVATITWSGGSTYYADSVKGRFTISRDNAKNTVYLQMNSLKPEDSAVYYCAAESRYTWIHSRDYWGQGTQVTVSS” was “low polyreactivity”.

Take “QVQLVESGGGLVQAGGSLRLSCAASGIIFVVYDMGWYRQAPGKERELVAAINWSGGSTYYADSVKGRFTISRDNAKNTVYLQMNSLKPEDTAVYYCAAESFSDGSPYNYWGQGTQVTVSS”: the “polyreactivity (PSR sort gate)” value is “low polyreactivity”. As for “QVQLVESGGGLVQAGGSLRLSCAASGIIFVYNAMGWYRPAPGKARELVAAINWRGDGTYYADSVKGRFTISRDNAKNTVYLQMNCLKPEDTAVYYCNAVRFRPNSHYRPVGYDYWGQGTQVTVSS”, the entry is “low polyreactivity”; as for “QVQLVESGGGLVQAGGSLRLSCAASGIIFVYYAMGWYRQAPGKERELVAAISTGGTRTYYADSVKGRFTISRDNAKNTVYLQMNSLKPEDTAVYYCNARGRYRKSERRAFDYWGQGTQVTVSS”, “high polyreactivity”. The value for “QVQLVESGGGLVQAGGSLRLSCAASGIIFVYYAMGWYRQAPGKERELVAAISTRGGSTYYADSVKGRFTISRDNAKNTVYLQMNSLKPEDTAVYYCAATYVYRYVPRIPSEAYDYWGQGTQVTVSS” was “high polyreactivity”.

As for “QVQLVESGGGLVQAGGSLRLSCAASGIIFWYYAMGWYRQAPGKDRELVARITTAGITNYADSVKGRFTISRDNAKNTVYLQMNSLKPEDTAVYYCAADTYWHYRGPGYDYWGQGTQVTVAS”, the “polyreactivity (PSR sort gate)” value was “low polyreactivity”. For the sequence “QVQLVESGGGLVQAGGSLRLSCAASGIIFYDYAMGGYREAPGKERELVATITRGGGTKYADSVKGRFTISRDNAKNTVYLQMNSLKPEDTAVYYCAADSHGVYEGDYCGQGTQVTVSS”, the “polyreactivity (PSR sort gate)” value is “low polyreactivity”. As for “QVQLVESGGGLVQAGGSLRLSCAASGIIFYDYAMGWYRPAPGKERELVAAINYSGGSTYYADSVKGRFTISRDNAKNTVYLQMNSLKPEDTAVYYCAADNAVWEYDYWGQGSQVTVSS”, the entry is “low polyreactivity”; as for “QVQLVESGGGLVQAGGSLRLSCAASGIIFYDYAMGWYRQAPGKERELVAAISGSGGSTYYADSVKGRFTISRDNAKNTVYLQMNSLKPEDTAVYYCAARFTRQMYYWGQGTQVTVSS”, “high polyreactivity”; as for “QVQLVESGGGLVQAGGSLRLSCAASGIIFYDYAMGWYRQAPGKERELVAAISTDAGSTYYADSVKGRFTISRDNAKNTVYLQMNSLKPEDTAVYYCNADEHSYSVSWDYEYDYWGQGTQVTVSS”, “high polyreactivity”.

In the case of “QVQLVESGGGLVQAGGSLRLSCAASGIIFYDYAMGWYRQAPGKERELVAAITSGGSTNYADSVKGRFTISRDNAKNTVYLQMNSLKPEDTAVYYCAATYWSWISLRFYWGQGTQVTVSS”, the “polyreactivity (PSR sort gate)” value is listed as “low polyreactivity”. As for “QVQLVESGGGLVQAGGSLRLSCAASGIIFYDYAMGWYRQAPGKERELVAAITSSGGSTYYADSVKGRFTISRDNAKNTVYLQMNRLKPEDTAVYYCAAATRGSGRRYDYWGQGTQVTVSS”, the entry is “high polyreactivity”; as for “QVQLVESGGGLVQAGGSLRLSCAASGIIFYFYARGWYRQAPGKETELVAANSRGGSTKYADSVKGRFTISRDNAKNTVYLLMYSLKPEDTAFYYCNARVRGVRQGIMDYWGQGTQVSVSS”, “high polyreactivity”; as for “QVQLVESGGGLVQAGGSLRLSCAASGIIFYGNAMGWYRPAPGKERELVAAISWTTDSTYADSVKGRFTISRDNAKNTVYLQMNSLKPEDTAVYYCNARNGSEFLANDLFTHEYDYWGQGTQVTVSS”, “low polyreactivity”. As for “QVQLVESGGGLVQAGGSLRLSCAASGIIFYGNAMGWYRQAPGKERELVAAISWSGSSTYYADSVKGRFTISRDNAKNTVYLQMNSLKPEDPAVYYCNKATSSVRYLKYYYWGQGTQVTVSS”, the entry is “high polyreactivity”; as for “QVQLVESGGGLVQAGGSLRLSCAASGIIFYGYAMGWYRQAPGKERELVAAISRSGGSTYYADSVKGRFTISRDNAKNTVYLQMNSLKPEDTAVYYCAASGVTYDYWGQGTQVTVSS”, “high polyreactivity”; as for “QVQLVESGGGLVQAGGSLRLSCAASGIIFYGYDMGWYRQAPGKERELVAAITWSGGSTYYADSVKGRFTISRDNAKNTVYLQMNSLKPEDTAVYYCNADLDSGYGSYDYWGQGTQVTVSS”, “low polyreactivity”.

Take “QVQLVESGGGLVQAGGSLRLSCAASGIIFYHYALGWYRPAPGKERELVAAISRRGGTTYYADSVKGRFTISRDNAKNTVYLQMNSLKPEDTAVYYCAADYGSYGLYRGYYYWGQGTQVTVSS”: the “polyreactivity (PSR sort gate)” value is listed as “high polyreactivity”.

Regarding “QVQLVESGGGLVQAGGSLRLSCAASGIIFYIYAMGWYRQAPGKERELVAGISWRGGSTSYADSVKGRFTISRDNAKNTVYLQMNSLKPEDTAVYYCAAEVYSWDGYDYWGQGTQVTVSS”, the “polyreactivity (PSR sort gate)” value is given as “low polyreactivity”.

As to “QVQLVESGGGLVQAGGSLRLSCAASGIIFYIYAMGWYRQAPGKERELVATISNDGGSTYYADSVKGRFTISRDNAKNTVYLQMNSLKPEDTAFFYCNADFADDKNYLFESELEYDYWGQGTQVTVSS”, the “polyreactivity (PSR sort gate)” value is “low polyreactivity”. As for “QVQLVESGGGLVQAGGSLRLSCAASGIIFYKYSMGWYRQAPGKERELVAAITSGGGRTYYADSVKGRFTISRDNAKITVDLQMNSLKPEDTAVYYCAATRPATYAAYDYWGQGTQVTVSS”, the entry is “high polyreactivity”. As for “QVQLVESGGGLVQAGGSLRLSCAASGIIFYLYAMGWYIQAPGKERELVAAISWGGGTTYYADSVKGRFTISRDNAKNTVYLQMNSLKPEDTAVYYCAAETEYYSYRFDYWGQGTQVTVSS”, the entry is “high polyreactivity”. In the case of “QVQLVESGGGLVQAGGSLRLSCAASGIIFYLYAMGWYRQAPGKERELVAAISRRGGSTYYADSVKGRFTISRDNAKNTVYLQMNSLKPEDTAVYYCAATIGTFGYGYWGQGTQVTVSS”, the “polyreactivity (PSR sort gate)” value is given as “high polyreactivity”. As for “QVQLVESGGGLVQAGGSLRLSCAASGIIFYLYAMGWYRQAPGKERELVAAITLSGSTTYYADSVKGGFTISRDNAKNTVYLQMNSLKPEDTAVYYCNADTPVRSDYWGQGTQVTVSS”, the entry is “low polyreactivity”; as for “QVQLVESGGGLVQAGGSLRLSCAASGIIFYNNAMGWYRKAPGKERELVADITSGNTNYADSVKGRFTISRDNAKNTVYLQMNSLKPEDTAVYYCNAEDDYTYDRSFGGYKYDYWGQGTQVTVSS”, “low polyreactivity”. As for “QVQLVESGGGLVQAGGSLRLSCAASGIIFYPYAMGWYRQAPGKERELVAAISQSGGTTSYADSVKGRFTISRDNAKNTVYLQMNSLKPEDTAVYYCARRVSTRKRYYYWGQGTQVTVSS”, the entry is “high polyreactivity”; as for “QVQLVESGGGLVQAGGSLRLSCAASGIIFYPYAMGWYRQAPGKERELVAAISTSGGRTYYADSVKGRFTISRDNAKNTVYLQMNSLKPEDTAVYYCAADNSSGDVNGGGYWGQGTQVTVSS”, “low polyreactivity”; as for “QVQLVESGGGLVQAGGSLRLSCAASGIIFYRYAMGWYRQAPGKEREFVAAISWSGGSTTYADSVKGRFTISRDNAKNTVYLQMNSLKPEDTAVYYCNADRIYWSLWGPAYDYWGQGTQVTVSS”, “high polyreactivity”.
